Test results published in article PMC9332313, “Folding and Binding Mechanisms of the SH2 Domain from Crkl” (Biomolecules, 2022).
Square brackets hold non-standard residues; d marks the D form. Ends that are not written are not given here. * marks the point of attachment. pY = N[C@@H](Cc1ccc(OP(=O)(O)O)cc1)C(=O)O; Dansyl = CN(C)c1cccc2c(S(=O)(=O)*)cccc12

Target: T1, SH2 domain of Crkl protein (residues 1-111), H91A variant (UniProt P46109 1-111, H91A)
T1 construct: Crkl adaptor protein, SH2 domain, residues 1-111, His91 replaced by alanine; Site-directed mutant of m1 (QuikChange); source: E. coli BL21 (DE3), purified (HisTrap nickel column, desalting); not shown: His tag, N-terminal, kept
Assay: stopped-flow fluorescence kinetics (FRET); dansyl-Pax112-123 constant at 2 μM mixed with Crkl-SH2 2 to 10 μM (pseudo-first-order, kon); koff by displacement of the preincubated 2 µM complex with excess non-dansylated Pax112-123 (30 μM); 283 K; 50 mM BisTRIS pH 6.8, 0.5 M NaCl
Settings: both partners purified

T1 sequence (P46109 1-111 H91A): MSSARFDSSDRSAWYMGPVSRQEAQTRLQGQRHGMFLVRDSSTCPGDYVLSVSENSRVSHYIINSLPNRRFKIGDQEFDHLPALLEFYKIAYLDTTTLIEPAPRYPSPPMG

Kd: 3 ± 0.1 µM | koff: 23.4 ± 0.4 s⁻¹ | kon: 7.8e+06 ± 300000 M⁻¹ s⁻¹
B1: dansylated Pax_(112–123) peptide (Dans-GEEEHV-pY-SFPNK) (peptide)
peptide: Dansyl-GEEEHV[pY]SFPNK
notes: The dansyl group is the FRET acceptor of Trp14 of the SH2 domain; source: synthetic peptide, bought: GenScript
